Measured values taken from article PMC11484861 (Nature Communications, 2024).

Biological target: GFP-PDPK1 (human (cloned from HEK293T cells)) (UniProt O15530)
Test: MST

Sequence of GFP-PDPK1 (human (cloned from HEK293T cells)) (O15530 whole entry): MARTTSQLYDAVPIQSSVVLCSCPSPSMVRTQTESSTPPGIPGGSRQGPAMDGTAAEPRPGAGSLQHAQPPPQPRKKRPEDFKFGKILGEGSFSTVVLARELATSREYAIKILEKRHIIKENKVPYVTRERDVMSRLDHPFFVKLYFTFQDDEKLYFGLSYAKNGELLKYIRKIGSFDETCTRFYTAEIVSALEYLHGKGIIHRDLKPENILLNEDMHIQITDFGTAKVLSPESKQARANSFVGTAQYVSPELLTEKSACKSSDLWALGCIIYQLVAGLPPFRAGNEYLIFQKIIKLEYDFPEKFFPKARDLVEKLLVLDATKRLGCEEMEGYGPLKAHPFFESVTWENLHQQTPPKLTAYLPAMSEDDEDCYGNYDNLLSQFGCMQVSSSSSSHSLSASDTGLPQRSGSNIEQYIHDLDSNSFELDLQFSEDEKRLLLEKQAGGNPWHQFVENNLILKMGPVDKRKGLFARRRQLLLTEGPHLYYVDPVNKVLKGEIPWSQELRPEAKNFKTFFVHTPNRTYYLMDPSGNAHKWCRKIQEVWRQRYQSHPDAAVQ

unlabeled MΔβ3-5 (MST ligand) (from UniProt P0DTC5 1-222) (domain or fragment)
Kd: 37.8 µM
